According to US10227575B2, “Multi-domain enzymes having cutinase activity, compositions comprising same and uses thereof” (OZYMES, priority 2015, dated 2019):

Assays:
[1] = Esterase assay, specific activity of KrCUT versus YebF-KrCUT; type: biochemical; settings: pNP-palmitate as substrate
Protocol: (§1) Esterase activity was determined by monitoring the formation of pNP at 410 nm from various pNP-esters using a Beckman UV spectrophotometer (model DU 640) (21). Substrates were dissolved in isopropanol and were added to 50 mM sodium phosphate buffer pH 8.0 to give 10% (v/v) total isopropanol concentration in a 1 mL reaction volume. pNP-butyrate was used at a final concentration of 1.2 mM. For pNP-caprylate, myristate and palmitate, the final concentration ranged from 0.1 to 0.5 mM. The reaction (1 mL) was started by adding an appropriate amount of enzyme. One enzyme unit (U) is defined as the amount of enzyme that produced 1 μmol of product (pNP) per min; specific activity is expressed as U/mg protein. A molar extinction coefficient of 15 mM^−1 cm^−1 for pNP is used for calculating enzyme activity.
The presence of YebF appeared to greatly decrease the activity of the fusion proteins. […] The results are shown in FIG. 6, in which fractions C1-C10 correspond to the first peak (KrCUT) and fractions D9-D11 correspond to the second peak (YebF-KrCUT).

[2] = Substrate range on p-NP esters, KrCUT versus KrCUT189; type: biochemical
Protocol: as §1

[3] = Potential inhibitors of cutinase activity; type: biochemical
Protocol: as §1
KrCUT cutinase activity was assayed as described in Example 1, section 1.6 in the presence of various chemicals using p-NP palmitate as substrate under standard assay conditions. […] Cu^2+ at 1.0 mM had little effect. The enzyme was not affected by the metal-chelating agent EDTA even at 10 mM. The anionic surfactant SDS was a strong inhibitor of cutinase even at 0.01% retaining only 28% activity. […] Dimethylsulfoxide (at 30%) and dimethylformide (at 5%) inhibited cutinase activity by about 70%.

[4] = Pectin release from hemp fibre (TBA method)
Protocol: Hemp fibres (German variety, 150 mg) were treated with either pectate lyase (PL, 10 U) or PL combined with various amounts of KrCUT (40, 60 and 100 U). Control experiments containing no enzyme or 100 U of KrCUT were conducted for comparison. After incubation at 37° C., aliquots of the reaction mixture were taken at 1 h 30 min and 3 h, and analyzed for pectin degradation products using the thio-barbituric acid (TBA) method (52) which detects released unsaturated compounds spectrophotometrically at 550 nm.
The quantity of pectin released from natural hemp fibre by KrCUT in conjunction with the action of a thermostable pectate lyase was assessed as described in Example 1, section 1.13. The thermostable pectate lyase alone released a certain amount of pectin as expected of the pectinolytic activity (Xiao et al., 2008).

[5] = Long term stability of KrCUT in culture medium; type: physicochemical; settings: for Activity (U/mL): culture medium at 4° C.
[6] = Stability of KrCUT in stabilisation buffer; type: physicochemical
Protocol: For stability testing, culture medium showing KrCUT activity, and containing 100 mg total protein was used. Stabilisation buffer composed of sodium gluconate 1-5%, sodium carbonate 1-5%, sodium citrate 1-5% and propylene glycol 1-5% was prepared; 50 mL enzyme solution was added to 200 mL of buffer and stored at room temperature, after mixing. Samples were taken at defined time periods and the enzymatic activity was measured using p-nitrophenyl dodecanoate as substrate.

[7] = Circular dichroism spectroscopy, melting temperature and refolding; type: physicochemical; settings: for melting temperature (Tm): unfolding; for Tm (° C.): estimated using CD-spectroscopy
Protocol: CD spectra were recorded using a Jasco™ J-815 spectrometer operating with the Spectra™ Manager software. Temperature was controlled using a Jasco™ PFD-452S peltier unit. Previously purified protein solutions were adjusted to 0.15 mg/mL (if quantities allowed for) and CD spectra were recorded between 190 and 250 nm using a Quartz cuvette (ID=0.1 cm). Blanks containing buffer only were prepared and used as baseline. Temperature dependent protein unfolding was monitored at 222 nm with thermo profiles ranging from 20 up to 90° C. (2° C. min-1). Samples were kept for 5 min at the respective maximum temperature and protein refolding was monitored using the same conditions as above reversing the thermo profiles. Thermodynamic parameters (Tm, ΔH, ΔS, ΔG) for the folding/unfolding process, if applicable, were calculated using the Spectra™ Manager software.

[8] = Thermostability of purified enzymes; type: physicochemical
Protocol: Enzyme thermostability was studied over a temperature range of 50-95° C. using the purified enzyme preparations. Aliquots were incubated at the desired temperature for 5, 10, 30, 60, and 120 minutes, chilled on ice, and assayed for remaining activity towards p-NP-palmitate (pNPP) at room temperature.

[9] = Degradation of polylactic acid; settings: 2.5 μM; 2 Units
[10] = Degradation of poly(1,3-propylene adipate); settings: 2.5 μM, after 24 hours

B1: KrCUT: mature Kineococcus radiotolerans cutinase, amino acids 34-294 of SEQ ID NO: 1; SEQ ID NO: 6 (protein)
chain: ATCSDVDVVFARGTGETPGLGVVGGPFVRSLTGELSDRTVTSHAVDYAASSSQASAGPGATAMSAHVREVAAACPSTRFVLGGYSQGATVTDIALGIRTGTTTGTPVPAELAGRVAAVVVFGNPLGLSGRTIATASSTYGPKSKDYCNSSDSVCGSAPKTGTGGHLSYASNGSTTDGARFAAGLVRAAGTPTTPTPTPTPTPVPTTCVRDSTRDHVAADRAVSLYGRAYARGSRDSLGATSSYNVVSLQQVEGGWRLVTAC
modifications: Kineococcus radiotolerans; (1)..(261) KrCUT (lacking residues 1-33 of ssKrCUT)
specific activity [1]: 162 U/mg
activity towards pNB-acetate [2]: little activity
fold higher activity with pNP butyrate over pNP-palmitate [2]: 8 fold
substrate giving the highest activity ([2]; p-NP esters): pNP butyrate
effect of para-chloromercuribenzoate ([3]; 0.01 to 1 mM): no discernible effect
effect of 2-propanol ([3]; 2-propanol exceeding 15%): strongly reduces enzyme activity
effect of Cu2+ ([3]; Cu2+ 1.0 mM): little effect
effect of EDTA ([3]; EDTA 10 mM): not affected
enzyme inhibition by Fe2+ ([3]; Fe2+ 1 mM): 50%
enzyme inhibition by Mg2+ ([3]; Mg2+ 10 mM): 19%
activity retained with SDS ([3]; SDS 0.01%): 28%
effect of SDS ([3]; SDS 0.1%): complete loss of activity
effect of alcohols ([3]; concentration above 15-20%): strong inhibiting effect
inhibition by dimethylformide ([3]; dimethylformide 5%): about 70%
inhibition by dimethylsulfoxide ([3]; dimethylsulfoxide 30%): about 70%
loss of activity by zinc ion ([3]; zinc ion 0.1 mM): over 90%
effect of zinc ion on cutinase activity ([3]; zinc ion 1 mM): complete loss of activity
pectin released from hemp fibre ([4]; highest concentration, absence of pectate lyase): negligible amounts
pectin degradation products detected ([4]; increasing amount of cutinase, fixed pectate lyase): higher percentage of pectin degradation products
Activity (U/mL) ([5]; 0 months): 3.0 ± 0.94 U/mL
Activity (U/mL) ([5]; 3 months): 25.67 ± 0.94 U/mL
Activity (U/mL) ([5]; 4 months): 17.13 ± 0.70 U/mL
Activity (U/mL) ([5]; 17 months): 16.66 ± 2.47 U/mL
Activity (U/mL) ([5]; 19 months): 21.94 U/mL
activity retained ([5]; room temperature, culture medium without additives, 4 months): full activity
initial activity present ([6]; 9 months at room temperature): up to 65%
time after which activity loss could be observed ([6]; room temperature): 4 months
refolding ([7]; CD at 222 nm): refolding to some extent
midpoint transition temperature of refolding ([7]; CD at 222 nm, high to low temperature): 42.7 °C
melting temperature (Tm) ([7]; CD at 222 nm): 50.7 °C
Tm (° C.) [7]: 51 ± 1 °C
Relative activity remaining (thermostability) ([8]; 50° C., 5 min, time 0 = 100%): 61 ± 5%
Relative activity remaining (thermostability) ([8]; 50° C., 10 min, time 0 = 100%): 31 ± 4%
Relative activity remaining (thermostability) ([8]; 50° C., 30 min, time 0 = 100%): 12 ± 2%
Relative activity remaining (thermostability) ([8]; 50° C., 60 min, time 0 = 100%): 6%
Relative activity remaining (thermostability) ([8]; 55° C., 5 min, time 0 = 100%): 45 ± 4%
Relative activity remaining (thermostability) ([8]; 55° C., 10 min, time 0 = 100%): 26 ± 4%
Relative activity remaining (thermostability) ([8]; 55° C., 30 min, time 0 = 100%): 4%
Relative activity remaining (thermostability) ([8]; 60° C., 5 min, time 0 = 100%): 34 ± 4%
Relative activity remaining (thermostability) ([8]; 60° C., 10 min, time 0 = 100%): 12 ± 2%
Relative activity remaining (thermostability) ([8]; 65° C., 5 min, time 0 = 100%): 19 ± 2%
PLA degraded [9]: approximately 5%
adipic acid found in the reaction mixture [10]: 12%

B2: Am-Kr: chimeric variant: AmCUT fused to the T/P-rich linker domain and polymer binding domain of KrCUT, SEQ ID NO: 27 (protein)
chain: ACSDLEIVFARGSGEAPGLGITGTPLVSDVKSALSSASVSSYAVDYAASYDQTSAGPGATDMSNHIKSTAAACPDTKFAIGGYSQGASVTDIAIGIRTYLGTGQTIPTELAPRVVAVIAFGNPLGLYGQTIKTASPTYGPKSLEFCNRGDNVCGGTGTGPGYGHLSYARDGSVDQAAAFIAKQYNASAGTPTTPTPTPTPTPVPTTCVRDSTRDHVAADRAVSLYGRAYARGSRDSLGATSSYNVVSLQQVEGGWRLVTAC
modifications: YebF carrier; Am-Kr variant
refolding ([7]; CD at 222 nm): did not show any refolding
melting temperature (Tm) ([7]; CD at 222 nm): 55.0 °C
Tm (° C.) [7]: 55 ± 1 °C

B3: Cf-TP: chimeric variant: catalytic and polymer binding domains of CfCUT with T/P-rich linker domain of KrCUT, SEQ ID NO: 29 (protein)
chain: APACPDVELVFARGTGEAAGLGIVGRPLERALAAELPGRTVVATAVDYAASSSQASAGPGSGDMVAKVRSRAAACPGTQFVLGGYSQGATVTDLALGIRTGVTAGTALPEDLAARVAAVVVYGNPLGLTRRTIAQAAPAFATRTVEYCNAGDPVCEPGGGRFTAHITYATNGTVLEGARFAAARVTAAGTPTTPTPTPTPTPVPTTCVTASSLQHVRDGRAYPLWMRTYARGSGDPLGVLSSRTVVSLQADGTDTWRKVAAC
modifications: YebF carrier; Cf-TP variant
refolding ([7]; CD at 222 nm): some refolding
melting temperature (Tm) ([7]; CD at 222 nm): 56.6 °C
Tm (° C.) [7]: 57 ± 1 °C
Relative activity remaining (thermostability) ([8]; 10 min): 43 ± 3%

B4: CfCUT: mature wild-type cutinase from Cellulomonas flavigena, SEQ ID NO: 28 (protein, listed as Cellulomonas flavigena)
chain: APACPDVELVFARGTGEAAGLGIVGRPLERALAAELPGRTVVATAVDYAASSSQASAGPGSGDMVAKVRSRAAACPGTQFVLGGYSQGATVTDLALGIRTGVTAGTALPEDLAARVAAVVVYGNPLGLTRRTIAQAAPAFATRTVEYCNAGDPVCEPGGGRFTAHITYATNGTVLEGARFAAARVTAPAPTPTPGPTGTPAPVPSAEPTPAPGDTCVTASSLQHVRDGRAYPLWMRTYARGSGDPLGVLSSRTVVSLQADGTDTWRKVAAC
refolding ([7]; CD at 222 nm): did not show any refolding
melting temperature (Tm) ([7]; CD at 222 nm): 65.2 °C
Tm (° C.) [7]: 65 ± 1 °C
